Reference: patent publication US20100209945A1

Molecular target: the different types of antibodies (different animal originated antibodies of Example 2)
Experiment: SPR (Biacore 3000), hybrid on CM-5 chip, antibody in solution

RTYRTYRTYRTYKKKG (C-terminal NH(CH2CH2O)nCH2CH2CO-Cys-NH2 (PEG linker and cysteine amide))
SPR reaction value: < 200 RU
